Reference: paper PMC4589357, “The Role of Electrostatic Interactions in Binding of Histone H3K4me2/3 to the Sgf29 Tandem Tudor Domain” (PLoS ONE, 2015)
No end group written: not given here. Me3 = trimethyl (on lysine, trimethyllysine)

Key:
Test in all cases: ITC; peptide (generally 1.2 mM) titrated to protein (100 uM); for variants of low affinity 2.4 mM peptide to 200 uM protein; 25 mM TRIS pH 8.0, 50 mM NaCl, 1 mM DTT; one-site model
Conditions in all cases: both partners purified
[1] = molecular target: T1, Wild-type Sgf29 (SAGA-associated Factor 29) tandem tudor domain, residues 115-293 (human, UniProt Q96ES7 115-293)
T1 construct: also called WT Sgf29; WT; source: E. coli Rosetta BL21 DE3 PlysS, purified (Ni-NTA, TEV cleavage, SEC Superdex 75)
T1 sequence (looked up): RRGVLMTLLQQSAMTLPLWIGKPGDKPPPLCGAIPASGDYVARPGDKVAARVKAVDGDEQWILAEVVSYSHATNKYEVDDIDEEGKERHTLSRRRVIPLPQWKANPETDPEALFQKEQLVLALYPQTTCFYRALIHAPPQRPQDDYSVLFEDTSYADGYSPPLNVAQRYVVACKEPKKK

[2] = molecular target: T2, Sgf29 D266E variant, residues 115-293 (human, UniProt Q96ES7 115-293, D266E)
T2 construct: source: E. coli Rosetta BL21 DE3 PlysS, purified (Ni-NTA, TEV cleavage, SEC Superdex 75)
T2 sequence (looked up): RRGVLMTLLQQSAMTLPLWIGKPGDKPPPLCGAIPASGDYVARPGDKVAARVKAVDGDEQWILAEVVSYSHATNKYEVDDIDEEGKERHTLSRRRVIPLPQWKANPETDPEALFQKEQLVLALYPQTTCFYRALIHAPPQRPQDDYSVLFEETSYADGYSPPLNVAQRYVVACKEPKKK

[3] = molecular target: T3, Sgf29 D266A variant, residues 115-293 (human, UniProt Q96ES7 115-293, D266A)
T3 construct: source: E. coli Rosetta BL21 DE3 PlysS, purified (Ni-NTA, TEV cleavage, SEC Superdex 75)
T3 sequence (looked up): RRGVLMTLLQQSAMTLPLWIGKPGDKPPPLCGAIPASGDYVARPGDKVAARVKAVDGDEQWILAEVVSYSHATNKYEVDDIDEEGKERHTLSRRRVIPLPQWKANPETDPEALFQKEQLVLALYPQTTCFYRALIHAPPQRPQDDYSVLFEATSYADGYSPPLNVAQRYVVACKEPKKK

[4] = molecular target: T4, Sgf29 D266N variant, residues 115-293 (human, UniProt Q96ES7 115-293, D266N)
T4 construct: source: E. coli Rosetta BL21 DE3 PlysS, purified (Ni-NTA, TEV cleavage, SEC Superdex 75)
T4 sequence (looked up): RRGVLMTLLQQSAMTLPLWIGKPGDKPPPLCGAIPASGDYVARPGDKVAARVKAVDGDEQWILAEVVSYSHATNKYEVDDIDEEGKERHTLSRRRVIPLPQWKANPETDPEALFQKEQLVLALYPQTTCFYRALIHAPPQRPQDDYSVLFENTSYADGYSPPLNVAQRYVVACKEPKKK

[5] = molecular target: T5, Sgf29 D266W variant, residues 115-293 (human, UniProt Q96ES7 115-293, D266W)
T5 construct: source: E. coli Rosetta BL21 DE3 PlysS, purified (Ni-NTA, TEV cleavage, SEC Superdex 75)
T5 sequence (looked up): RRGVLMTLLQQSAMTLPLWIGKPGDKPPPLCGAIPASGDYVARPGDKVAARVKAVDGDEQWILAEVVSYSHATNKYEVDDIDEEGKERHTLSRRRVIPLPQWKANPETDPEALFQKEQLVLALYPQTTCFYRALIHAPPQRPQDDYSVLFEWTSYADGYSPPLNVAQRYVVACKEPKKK

[6] = molecular target: T6, Sgf29 D266Y variant, residues 115-293 (human, UniProt Q96ES7 115-293, D266Y)
T6 construct: source: E. coli Rosetta BL21 DE3 PlysS, purified (Ni-NTA, TEV cleavage, SEC Superdex 75)
T6 sequence (looked up): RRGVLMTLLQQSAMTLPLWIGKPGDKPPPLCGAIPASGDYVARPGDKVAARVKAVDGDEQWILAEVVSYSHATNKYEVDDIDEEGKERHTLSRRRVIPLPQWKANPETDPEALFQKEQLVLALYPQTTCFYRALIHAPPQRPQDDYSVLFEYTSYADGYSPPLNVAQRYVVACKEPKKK

[7] = molecular target: T7, Sgf29 D266F variant, residues 115-293 (human, UniProt Q96ES7 115-293, D266F)
T7 construct: source: E. coli Rosetta BL21 DE3 PlysS, purified (Ni-NTA, TEV cleavage, SEC Superdex 75)
T7 sequence (looked up): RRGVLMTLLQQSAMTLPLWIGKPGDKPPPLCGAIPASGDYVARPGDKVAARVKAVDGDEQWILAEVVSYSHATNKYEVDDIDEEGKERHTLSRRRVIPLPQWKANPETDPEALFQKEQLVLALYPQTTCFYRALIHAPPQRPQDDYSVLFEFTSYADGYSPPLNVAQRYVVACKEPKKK

[8] = molecular target: T8, Sgf29 Y238F variant, residues 115-293 (human, UniProt Q96ES7 115-293, Y238F)
T8 construct: source: E. coli Rosetta BL21 DE3 PlysS, purified (Ni-NTA, TEV cleavage, SEC Superdex 75)
T8 sequence (looked up): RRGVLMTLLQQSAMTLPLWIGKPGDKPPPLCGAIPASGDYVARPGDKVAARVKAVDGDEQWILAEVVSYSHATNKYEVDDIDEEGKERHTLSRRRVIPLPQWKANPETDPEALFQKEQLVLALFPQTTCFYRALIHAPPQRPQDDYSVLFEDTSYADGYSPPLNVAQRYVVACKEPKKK

[9] = molecular target: T9, Sgf29 Y245F variant, residues 115-293 (human, UniProt Q96ES7 115-293, Y245F)
T9 construct: source: E. coli Rosetta BL21 DE3 PlysS, purified (Ni-NTA, TEV cleavage, SEC Superdex 75)
T9 sequence (looked up): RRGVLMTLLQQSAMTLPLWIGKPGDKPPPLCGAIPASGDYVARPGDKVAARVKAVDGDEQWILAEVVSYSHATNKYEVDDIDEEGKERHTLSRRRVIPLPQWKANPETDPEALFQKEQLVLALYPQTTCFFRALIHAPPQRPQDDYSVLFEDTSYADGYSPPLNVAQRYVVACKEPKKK

B1: 10-mer histone 3 peptide H3K4me3 (ARTKme3QTARKS) (peptide)
peptide: ARTK(Me3)QTARKS-OH
notes: histone H3 N-terminal tail, 10-mer, K4 trimethylated; also called native 10-mer peptide; source: synthetic peptide (manual Fmoc solid-phase synthesis, preparative HPLC)
[1]
  Kd: 3.1 µM
  dH: -8.1 kcal/mol
[2]
  Kd: 3.9 µM
  dH: -9 kcal/mol
[3]
  Kd: 25 µM
  dH: -6.4 kcal/mol
[4]
  Kd: 25 µM
  dH: -6.2 kcal/mol
[5]
  Kd: > 200 µM
[6]
  Kd: 28 µM
  dH: -4.8 kcal/mol
[7]
  Kd: 44 µM
  dH: -3.4 kcal/mol
[8]
  Kd: 3.5 µM
  dH: -8.1 kcal/mol
[9]
  Kd: 14 µM
  dH: -5.9 kcal/mol
